Changes are numbered by the printed parent chain.
Experiments:
[1] = biological target: T1, IGF-IIE (amino acids 1-104 of pro-IGF-II) (human, UniProt P01344 25-128); assay: SPR (Flexchip), Fab, 2nd of duplicate
T1 construct: Biotinylated in the selections; also called IGF-IIE (104aa)

[2] = biological target: T2, insulin-like growth factor II (IGF-II), amino acids 1-67 (human, UniProt P01344 25-91); assay: SPR (Flexchip), Fab, 2nd of duplicate
T2 construct: recombinant; also called IGF-II (67aa); IGF2
T2 sequence (P01344 25-91): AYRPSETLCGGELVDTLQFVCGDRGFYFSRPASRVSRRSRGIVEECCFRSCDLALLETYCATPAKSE

[3] = biological target: T2, insulin-like growth factor II (IGF-II), …; assay: SPR, compared with DX-2647
[4] = biological target: T1, IGF-IIE (amino acids 1-104 of …); assay: cell-based or functional assay
[5] = biological target: T2, insulin-like growth factor II (IGF-II), …; assay: cell-based or functional assay
[6] = biological target: T1, IGF-IIE (amino acids 1-104 of …); assay: SPR (Flexchip), Fab, 1st of duplicate
[7] = biological target: T2, insulin-like growth factor II (IGF-II), …; assay: SPR (Flexchip), Fab, 1st of duplicate
[8] = biological target: T2, insulin-like growth factor II (IGF-II), …; assay: SPR (value equals that of Table 6, there under IgGs); Fab, not IgG
[9] = biological target: T1, IGF-IIE (amino acids 1-104 of …); assay: competition SPR (BIACORE T100), affinity in solution, free ligand read on huIR-A ECD; measurement 2
Protocol: (§1) Competition SPR (BIACORE®) was performed under conditions of partially mass-transport limited conditions according to previously described methodology (Nieba et al., 1996). Approximately 16,700 relative response units (RU) of huIR-A (-exon11) ectodomain was coupled by standard amine chemistry to a BIACORE® CM5 chip sensor. Uncoated flow-cell surface was used as a reference. […] Regeneration of the surface was achieved by injection of 30 ul NaCltrate/NaCl pH 4.5. […] These Req estimates were subsequently plotted against total concentrations of Fab used and the resulting inhibition curve was utilised to calculate dissociation constant (KD).

[10] = biological target: T2, insulin-like growth factor II (IGF-II), …; assay: as above
Protocol: as §1

[11] = biological target: T3, insulin-like growth factor I (IGF-I) (UniProt P05019 49-118); assay: cell-based or functional assay
T3 sequence (P05019 49-118 limits assumed): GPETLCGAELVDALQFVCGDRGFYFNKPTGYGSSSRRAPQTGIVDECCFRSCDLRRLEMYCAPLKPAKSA

[12] = biological target: T1, IGF-IIE (amino acids 1-104 of …); assay: competition SPR (BIACORE T100), affinity in solution, free ligand read on huIR-A ECD; measurement 1
Protocol: as §1

[13] = biological target: T2, insulin-like growth factor II (IGF-II), …; assay: as above
Protocol: as §1

[14] = biological target: T2, insulin-like growth factor II (IGF-II), …; assay: SPR, IgG captured on anti-human Fc chip, ligand as analyte
[15] = biological target: T3, insulin-like growth factor I (IGF-I); assay: SPR
[16] = biological target: T3, insulin-like growth factor I (IGF-I); assay: SPR, captured IgG, 1:1 binding model
[17] = biological target: T1, IGF-IIE (amino acids 1-104 of …); assay: SPR, captured IgG, 1:1 binding model
[18] = biological target: T2, insulin-like growth factor II (IGF-II), …; assay: SPR, captured IgG, 1:1 binding model
IGFBP-1 = biological target: T4, IGFBP-1 (UniProt P08833 26-259); assay: SPR: DX-2647 captured through its Fc, IGFBP-1 alone injected; concentration not on the sheet
T4 sequence (looked up): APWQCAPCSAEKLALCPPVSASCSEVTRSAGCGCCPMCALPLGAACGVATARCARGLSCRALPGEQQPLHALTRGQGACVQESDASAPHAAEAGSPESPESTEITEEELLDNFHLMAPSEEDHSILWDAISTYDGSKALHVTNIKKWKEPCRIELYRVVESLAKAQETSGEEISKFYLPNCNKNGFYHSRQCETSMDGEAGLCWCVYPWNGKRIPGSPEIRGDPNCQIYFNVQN

[19] = biological target: pre-formed complex of IGF-II and IGFBP-1 (human, UniProt P08833 26-259); assay: SPR: DX-2647 captured through its Fc, pre-formed IGF-II/IGFBP-1 complex injected; concentration not on the sheet

T1 sequence (P01344 25-128): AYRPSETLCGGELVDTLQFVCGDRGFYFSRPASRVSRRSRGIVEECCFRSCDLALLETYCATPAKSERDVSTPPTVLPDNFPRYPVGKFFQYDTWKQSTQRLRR

B1: M0064-F02 Fab (Fab, V domains shown)
VH: EVQLLESGGGLVQPGGSLRLSCAASGFTFSNYIMWWVRQAPGKGLEWVSVISSSGGMTRYADSVKGRFTISRDNSKNTLYLQMNSLRAEDTAVYYCARDNGDYVGEKGFDIWGQGTMVTVSS
VL: DIQMTQSPSSLSASVGDRVTITCRASQSISNYLNWYQQKPGKAPKLLIYTASTLQSGVPSRFSGSASGTDFTLTINSLQPEDFATYSCQQSYNSPWTFGQGTKVEIKR
notes: soluble Fab (sFab); also the Fab crystallised with IGF-II; also called R0032-A11; 566A-M0064-F02
- Kd [1]: 0.29 nM
- Kd [2]: 1.2 nM
- fold less affinity than DX-2647 [3]: 7 fold
- IC50, IGF-IIE stimulated Ba/F3 cell proliferation (MTS) [4]: 3.12 µg/mL
- IC50, IGF-II stimulated Ba/F3 cell proliferation (MTS) [5]: 0.68 µg/mL
- Kd [6]: 0.32 nM
- Kd [7]: 0.45 nM
- Kd [8]: 0.14 nM
- Kd [9]: 0.352 nM
- Kd [10]: 0.503 nM
- IGF-I stimulated Ba/F3 cell proliferation, sFab at 50 µg/ml [11]: ~30 % inhibition
- Kd [12]: 1.91 nM
- Kd [13]: 1.03 nM

B2: DX-2647 (antibody, human IgG1, kappa, V domains shown)
VH: B1 VH with M57G, R59L
VL: B1 VL with A66G, N76S, S87Y
notes: human IgG1, germlined from 566A-M0064-F02, expressed in CHOK1SV cells
- Kd [14]: 0.023 nM
- Kd [15]: 28 nM
- Kd [16]: 17 nM
- koff [16]: 0.1 s⁻¹
- kon [16]: 5.8e+06 M⁻¹ s⁻¹
- Kd [17]: < 0.023 nM
- koff [17]: < 2e-05 s⁻¹
- kon [17]: 2.06e+06 M⁻¹ s⁻¹
- Kd [18]: 0.0226 nM
- koff [18]: 2.38e-05 s⁻¹
- kon [18]: 1.06e+06 M⁻¹ s⁻¹
- binding result (IGFBP-1): no binding
- binding result [19]: no binding
